The subject of series [1] is GR20, poly(GR) dipeptide repeat peptide. The series is described as follows: BLI. To be noted: apparent Kd, 1:1 equilibrium fit; BLI: 10 mM Tris-HCl, 1 mM disodium EDTA, pH 8.0, 150 mM NaCl, 0.1 mg/ml BSA, 0.01% Tween-20, 25 C; RNA on streptavidin ….
Series [2] concerns PR20, poly(PR) dipeptide repeat peptide. In words: BLI. Conditions: apparent Kd, 1:1 equilibrium fit; BLI: 10 mM Tris-HCl, 1 mM disodium EDTA, pH 8.0, 150 mM NaCl, 0.1 mg/ml BSA, 0.01% Tween-20, 25 C; RNA on streptavidin ….

In publication PMC10338859 one finds Kd data, which are given here for two sequences.

“AUAAUAUAAUAUAAUAUAAUAUAAU [poly(AUAAU) RNA]”: the Kd came to 6.1 nM in series [1] and 11.1 nM in series [2].
Consider “GAGAAGAGAAGAGAAGAGAAGAGAA [poly(GAAGA) RNA]”, for which the Kd in series [1] amounted to 3.6 nM; in series [2], 2.6 nM.
